Experimental data taken from PMC4197964 (Genes & Development, 2014).

Target: MBP-Spt16 (budding yeast, UniProt P32558 1-1035)
Experiment: pull-down

MBP-Spt16, sequence (P32558 whole entry): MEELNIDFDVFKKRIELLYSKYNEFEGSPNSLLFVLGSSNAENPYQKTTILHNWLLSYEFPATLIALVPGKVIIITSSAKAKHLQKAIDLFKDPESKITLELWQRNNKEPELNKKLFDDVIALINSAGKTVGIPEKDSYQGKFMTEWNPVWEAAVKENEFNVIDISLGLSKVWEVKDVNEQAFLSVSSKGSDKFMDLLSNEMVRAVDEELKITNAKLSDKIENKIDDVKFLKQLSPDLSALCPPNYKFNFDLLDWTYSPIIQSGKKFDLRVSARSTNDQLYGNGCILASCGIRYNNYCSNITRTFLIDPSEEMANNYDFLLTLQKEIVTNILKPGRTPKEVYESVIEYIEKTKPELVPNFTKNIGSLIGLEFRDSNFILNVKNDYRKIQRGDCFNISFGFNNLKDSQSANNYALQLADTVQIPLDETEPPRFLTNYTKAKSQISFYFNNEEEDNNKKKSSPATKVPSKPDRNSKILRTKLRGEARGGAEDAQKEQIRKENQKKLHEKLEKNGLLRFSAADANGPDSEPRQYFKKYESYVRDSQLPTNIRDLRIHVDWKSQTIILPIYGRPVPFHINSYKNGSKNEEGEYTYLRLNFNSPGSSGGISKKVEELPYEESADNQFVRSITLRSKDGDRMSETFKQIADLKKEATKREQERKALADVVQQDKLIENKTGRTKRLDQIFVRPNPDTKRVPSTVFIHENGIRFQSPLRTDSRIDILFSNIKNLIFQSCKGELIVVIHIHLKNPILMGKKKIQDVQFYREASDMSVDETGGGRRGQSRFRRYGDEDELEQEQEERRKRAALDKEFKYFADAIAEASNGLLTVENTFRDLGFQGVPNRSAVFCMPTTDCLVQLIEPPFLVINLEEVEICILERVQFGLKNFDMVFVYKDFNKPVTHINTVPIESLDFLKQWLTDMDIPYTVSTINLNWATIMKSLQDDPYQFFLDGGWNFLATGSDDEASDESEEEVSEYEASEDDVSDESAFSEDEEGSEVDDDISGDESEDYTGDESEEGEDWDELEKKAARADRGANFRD

binding result: binds
B1: GST-Psh1, full-length [FL (1-406)] (enzyme, budding yeast, UniProt Q12161 1-406, looked up)
chain: MGDELHNRLLHQNDGTKDAILYKIIESLVCSICHDYMFVPMMTPCGHNYCYGCLNTWFASNTQKELACPQCRSDITTIPALNTTLQQYLSFILEKLRDQNDESFKKLLTTKTKEENDYKNDKEKDTLFDKVFKNSALAVADDSDDGITRCSNCHWELDPDEVEDGNVCPHCNARIRNYAGGRDEFDEEEYSEGELDEIRESMRRRRENRFASTNPFANRDDVSSEDDDSSEEEPMREHIPLGRWARSHNRSIAVDAVDDEDDEEEDEEEEEEMDSDLKDFIEDDEDDEDEDGSRRNLVLSALKNRHVIITDDEEEEQRRHATEEEDRDSDFYEHNDDGFVSGDSLDEDQKEVTRIQSSSDSEDRSLSYSGSSDVKDNNDDNTEELDDPQPKRQKRFRVVLGDSDDE
